Assays:
OcHeR = target: T1, OcHeR (Ornithinimicrobium cerasi, UniProt A0A285W045); test: UV-visible absorption spectroscopy of purified pigment; format: binding; settings: covalent; Schiff base to K252; neutral pH
T1 construct: gene SAMN05421879_12810; purified from E. coli C43(DE3) grown with all-trans-retinal; DDM, Ni-NTA; homodimer
T1 sequence (A0A285W045 1-266): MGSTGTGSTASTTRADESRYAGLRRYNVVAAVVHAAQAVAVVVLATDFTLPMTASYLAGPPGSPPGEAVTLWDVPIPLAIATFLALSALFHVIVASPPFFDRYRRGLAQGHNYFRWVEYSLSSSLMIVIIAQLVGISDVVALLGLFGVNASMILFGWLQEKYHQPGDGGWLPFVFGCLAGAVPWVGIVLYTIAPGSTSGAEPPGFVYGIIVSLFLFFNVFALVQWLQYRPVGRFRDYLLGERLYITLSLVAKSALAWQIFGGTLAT

OmrDE [1] = target: T2, OmrDE (Ornithinimicrobium cerasi, UniProt A0A285VW85+A0A285VWG3); test: ATP hydrolysis, colorimetric Pi (phosphomolybdate); format: biochemical; settings: read-out: Km (mM, ATP); Mg-ATP (MgSO4:ATP 1.5:1), pH 7.0, 25 °C, 0.02% DDM; no OcHeR
T2 construct: gene SAMN05421879_12812; co-expressed heterodimer of two half-transporters; codon-optimized, E. coli C43(DE3), DDM-solubilized, Ni-NTA
Source text: ATP hydrolysis, colorimetric Pi (phosphomolybdate) on OmrDE

OmrDE with OcHeR WT = target: T3, OmrDE with OcHeR WT (Ornithinimicrobium cerasi, UniProt A0A285VW85+A0A285VWG3); test: ATP hydrolysis, colorimetric Pi (phosphomolybdate); format: biochemical; settings: read-out: Km (mM, ATP); Mg-ATP (MgSO4:ATP 1.5:1), pH 7.0, 25 °C, 0.02% DDM; OcHeR WT 1:1, dark
T3 construct: gene SAMN05421879_12812; E. coli C43(DE3), DDM, Ni-NTA; with Heliorhodopsin
T3 sequence (A0A285VW85 1-577): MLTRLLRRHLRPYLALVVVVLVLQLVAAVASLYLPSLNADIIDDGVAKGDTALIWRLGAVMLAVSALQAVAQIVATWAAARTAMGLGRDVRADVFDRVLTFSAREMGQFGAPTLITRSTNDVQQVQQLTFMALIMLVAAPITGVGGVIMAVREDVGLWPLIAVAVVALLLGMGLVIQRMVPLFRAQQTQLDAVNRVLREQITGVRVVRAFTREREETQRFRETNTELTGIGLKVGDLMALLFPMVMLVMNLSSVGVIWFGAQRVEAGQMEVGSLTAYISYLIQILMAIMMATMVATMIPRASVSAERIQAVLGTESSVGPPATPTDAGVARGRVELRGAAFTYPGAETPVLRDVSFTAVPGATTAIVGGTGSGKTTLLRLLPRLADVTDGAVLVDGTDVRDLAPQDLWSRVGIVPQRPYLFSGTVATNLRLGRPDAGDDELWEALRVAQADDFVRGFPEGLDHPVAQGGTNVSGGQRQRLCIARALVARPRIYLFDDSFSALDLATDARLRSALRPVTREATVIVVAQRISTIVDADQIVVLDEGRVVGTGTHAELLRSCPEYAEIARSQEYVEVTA
T3 sequence (A0A285VWG3 1-661): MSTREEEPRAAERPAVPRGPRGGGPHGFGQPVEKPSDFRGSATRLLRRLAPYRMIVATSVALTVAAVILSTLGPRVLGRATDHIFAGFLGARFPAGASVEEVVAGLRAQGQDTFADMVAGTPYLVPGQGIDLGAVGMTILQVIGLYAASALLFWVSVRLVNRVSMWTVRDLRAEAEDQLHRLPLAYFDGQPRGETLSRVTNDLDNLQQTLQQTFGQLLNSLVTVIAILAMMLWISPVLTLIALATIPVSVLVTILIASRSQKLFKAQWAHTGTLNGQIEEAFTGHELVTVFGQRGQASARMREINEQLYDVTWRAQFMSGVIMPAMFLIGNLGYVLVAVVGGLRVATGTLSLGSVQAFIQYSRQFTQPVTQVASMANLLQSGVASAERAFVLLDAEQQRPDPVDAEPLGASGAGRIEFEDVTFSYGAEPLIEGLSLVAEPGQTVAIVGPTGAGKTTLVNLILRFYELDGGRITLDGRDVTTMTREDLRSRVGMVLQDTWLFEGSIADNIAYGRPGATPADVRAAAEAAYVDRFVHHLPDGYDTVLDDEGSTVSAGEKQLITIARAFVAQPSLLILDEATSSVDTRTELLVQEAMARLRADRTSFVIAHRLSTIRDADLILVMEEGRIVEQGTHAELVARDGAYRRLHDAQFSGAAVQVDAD
T3 sequence (A0A285W045 1-266 partner): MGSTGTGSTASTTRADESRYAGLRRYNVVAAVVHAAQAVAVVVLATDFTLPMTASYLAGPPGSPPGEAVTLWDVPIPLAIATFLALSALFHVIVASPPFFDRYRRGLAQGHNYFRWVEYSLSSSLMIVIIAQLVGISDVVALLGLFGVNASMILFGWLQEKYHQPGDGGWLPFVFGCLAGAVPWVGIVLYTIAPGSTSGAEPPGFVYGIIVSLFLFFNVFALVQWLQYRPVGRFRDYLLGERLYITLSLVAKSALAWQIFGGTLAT
Source text: ATP hydrolysis, colorimetric Pi (phosphomolybdate) on OmrDE with OcHeR WT

[2] = target: heterodimeric multidrug resistance ABC transporter OmrDE (Omithinimicrobium cerasi strain USBA17B2); test: ITC; OcHeR injected into the Omr protein; 25 °C, 500 rpm; buffer SD; MicroCal ITC200; one site binding model (sequential binding site model for R233Q); perfect saturation was not achieved
OmrDE [3] = target: T2, OmrDE; test: ATP hydrolysis, colorimetric Pi (phosphomolybdate); format: biochemical
[4] = target: T4, Omithinimicrobium cerasi strain USBA17B2 heliorhodopsin (OcHeR) WT (Omithinimicrobium cerasi strain USBA17B2, UniProt A0A285W045 1-266, retinal Schiff base linked to K252); test: ITC; OcHeR injected into the Omr protein; 25 °C, 500 rpm; buffer SD; MicroCal ITC200; one site binding model (sequential binding site model for R233Q); perfect saturation was not achieved; settings: both partners purified
T4 construct: gene codon-optimized for E. coli and chemically synthesized; source: E. coli C43 (DE3), purified (DDM-solubilized membrane fraction, Ni2+-NTA agarose)
T4 sequence (looked up): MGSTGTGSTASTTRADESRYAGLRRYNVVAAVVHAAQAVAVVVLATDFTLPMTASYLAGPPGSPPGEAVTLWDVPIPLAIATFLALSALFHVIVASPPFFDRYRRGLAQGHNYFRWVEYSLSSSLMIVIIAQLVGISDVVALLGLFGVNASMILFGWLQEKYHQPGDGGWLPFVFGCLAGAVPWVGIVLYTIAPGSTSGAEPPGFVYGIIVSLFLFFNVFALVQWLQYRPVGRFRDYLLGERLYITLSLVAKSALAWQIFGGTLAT

Glu118 (position 118, …) = test: UV-vis; settings: not stated for the titration. Purified protein was kept in buffer SD with 150 mM NaCl.; not stated for the titration. Purification buffer SD was 150 mM NaCl, 50 mM Tris-HCl pH 7.0, 0.02% DDM. pH was adjusted by adding HCl and NaOH.; Dark/ground state, retinal-bound, detergent-solubilised, without OmrDE
[5] = target: T5, heterodimeric multidrug resistance ABC transporter OmrDE (Omithinimicrobium cerasi strain USBA17B2, UniProt A0A285VW85 1-577; A0A285VWG3 1-661); test: cell-based or functional assay
T5 sequence (looked up) 1: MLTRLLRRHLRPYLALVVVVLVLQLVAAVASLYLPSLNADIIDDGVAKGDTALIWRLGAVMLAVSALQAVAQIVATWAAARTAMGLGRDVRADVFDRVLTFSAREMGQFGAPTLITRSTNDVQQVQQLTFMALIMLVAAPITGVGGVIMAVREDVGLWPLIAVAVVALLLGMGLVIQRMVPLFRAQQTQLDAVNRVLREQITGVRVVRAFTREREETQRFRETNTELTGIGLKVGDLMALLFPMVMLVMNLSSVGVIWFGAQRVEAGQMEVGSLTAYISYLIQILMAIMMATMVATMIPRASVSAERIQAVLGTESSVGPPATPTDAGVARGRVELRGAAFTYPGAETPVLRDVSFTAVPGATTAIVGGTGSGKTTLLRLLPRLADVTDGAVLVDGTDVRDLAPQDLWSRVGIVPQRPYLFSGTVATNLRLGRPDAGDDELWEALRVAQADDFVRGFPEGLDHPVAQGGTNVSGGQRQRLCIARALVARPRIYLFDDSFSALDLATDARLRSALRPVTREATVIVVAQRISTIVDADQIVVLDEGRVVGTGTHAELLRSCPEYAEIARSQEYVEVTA
T5 sequence (looked up) 2: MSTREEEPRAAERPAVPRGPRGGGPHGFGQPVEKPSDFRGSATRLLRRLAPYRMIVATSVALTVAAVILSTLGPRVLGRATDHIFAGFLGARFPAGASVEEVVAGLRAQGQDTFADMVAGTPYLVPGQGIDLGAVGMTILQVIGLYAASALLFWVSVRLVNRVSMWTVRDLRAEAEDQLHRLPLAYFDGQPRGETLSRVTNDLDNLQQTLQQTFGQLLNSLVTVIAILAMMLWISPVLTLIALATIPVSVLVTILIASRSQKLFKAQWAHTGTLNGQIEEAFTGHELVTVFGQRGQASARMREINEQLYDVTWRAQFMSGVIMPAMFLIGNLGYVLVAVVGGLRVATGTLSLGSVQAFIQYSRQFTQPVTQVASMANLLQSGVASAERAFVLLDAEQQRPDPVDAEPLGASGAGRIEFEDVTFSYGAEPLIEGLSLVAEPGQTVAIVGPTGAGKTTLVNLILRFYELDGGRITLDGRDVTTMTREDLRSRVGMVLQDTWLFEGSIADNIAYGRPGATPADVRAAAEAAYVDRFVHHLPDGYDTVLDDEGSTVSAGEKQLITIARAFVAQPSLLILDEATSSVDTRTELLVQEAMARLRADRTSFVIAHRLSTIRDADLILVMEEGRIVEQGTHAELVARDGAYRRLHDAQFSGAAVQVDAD

## CC1=C(/C=C/C(C)=C/C=C/C(C)=C/C=O)C(C)(C)CCC1 [all-trans-retinal]
OcHeR
  retinal attachment site: retinal Schiff base linked to K252 of OcHeR

## Nc1ncnc2c1ncn2[C@@H]1O[C@H](COP(=O)(O)OP(=O)(O)OP(=O)(O)O)[C@@H](O)[C@H]1O [ATP]
OmrDE [1]
  Km: 19.2 ± 12.3 mM
OmrDE with OcHeR WT
  Km: 10.4 ± 7 mM

## OcHeR W225A (natural protein)
[2]
  Kd: 16.9 µM
  dH: 11.8 kcal/mol

## OcHeR R233Q (natural protein)
[2]
  Kd of the first binding (sequential binding site model): 42.9 µM
  Kd of the second binding (sequential binding site model): 25.3 µM
  dH of the first binding (sequential binding site model): 5.9 kcal/mol
  dH of the second binding (sequential binding site model): 38.7 kcal/mol

## OcHeR R235Q (natural protein)
[2]
  Kd: 26 µM
  dH: 2.4 kcal/mol

## N=C(N)c1ccc(-c2cc3ccc(C(=N)N)cc3[nH]2)cc1 [DAPI]
OmrDE [3]
  IC50: 47.4 µM

## OcHeR R229Q (natural protein)
[2]
  Kd: 5.1 µM
  dH: 8.6 kcal/mol

B1: NBD-truncated OmrDE (OmrD^tcE^tc) (complex)
chain 1: MLTRLLRRHLRPYLALVVVVLVLQLVAAVASLYLPSLNADIIDDGVAKGDTALIWRLGAVMLAVSALQAVAQIVATWAAARTAMGLGRDVRADVFDRVLTFSAREMGQFGAPTLITRSTNDVQQVQQLTFMALIMLVAAPITGVGGVIMAVREDVGLWPLIAVAVVALLLGMGLVIQRMVPLFRAQQTQLDAVNRVLREQITGVRVVRAFTREREETQRFRETNTELTGIGLKVGDLMALLFPMVMLVMNLSSVGVIWFGAQRVEAGQMEVGSLTAYISYLIQILMAIMMATMVATMIPRASVSAERIQAVLGTESSVGPPATPTDAGVARGR
chain 2: MSTREEEPRAAERPAVPRGPRGGGPHGFGQPVEKPSDFRGSATRLLRRLAPYRMIVATSVALTVAAVILSTLGPRVLGRATDHIFAGFLGARFPAGASVEEVVAGLRAQGQDTFADMVAGTPYLVPGQGIDLGAVGMTILQVIGLYAASALLFWVSVRLVNRVSMWTVRDLRAEAEDQLHRLPLAYFDGQPRGETLSRVTNDLDNLQQTLQQTFGQLLNSLVTVIAILAMMLWISPVLTLIALATIPVSVLVTILIASRSQKLFKAQWAHTGTLNGQIEEAFTGHELVTVFGQRGQASARMREINEQLYDVTWRAQFMSGVIMPAMFLIGNLGYVLVAVVGGLRVATGTLSLGSVQAFIQYSRQFTQPVTQVASMANLLQSGVASAERAFVLLDAEQQRPDPVDAEPLGASGAGR
[4]
  Kd: 38.9 µM

B2: Heliorhodopsin OcHeR (Ornithinimicrobium cerasi strain USBA17B2 (spelled 'Omithinimicrobium cerasi' in the main text)) (protein)
chain: MGSTGTGSTASTTRADESRYAGLRRYNVVAAVVHAAQAVAVVVLATDFTLPMTASYLAGPPGSPPGEAVTLWDVPIPLAIATFLALSALFHVIVASPPFFDRYRRGLAQGHNYFRWVEYSLSSSLMIVIIAQLVGISDVVALLGLFGVNASMILFGWLQEKYHQPGDGGWLPFVFGCLAGAVPWVGIVLYTIAPGSTSGAEPPGFVYGIIVSLFLFFNVFALVQWLQYRPVGRFRDYLLGERLYITLSLVAKSALAWQIFGGTLAT
Glu118 (position 118, …)
  pKa: 2.9

B3: OcHeR R102Q (natural protein)
chain: MGSTGTGSTASTTRADESRYAGLRRYNVVAAVVHAAQAVAVVVLATDFTLPMTASYLAGPPGSPPGEAVTLWDVPIPLAIATFLALSALFHVIVASPPFFDQYRRGLAQGHNYFRWVEYSLSSSLMIVIIAQLVGISDVVALLGLFGVNASMILFGWLQEKYHQPGDGGWLPFVFGCLAGAVPWVGIVLYTIAPGSTSGAEPPGFVYGIIVSLFLFFNVFALVQWLQYRPVGRFRDYLLGERLYITLSLVAKSALAWQIFGGTLAT
modifications: retinal Schiff base linked to K252
[5]
  kcat/Km of ATP hydrolysis of purified OmrDE with OcHeR R102Q (1:1), absence of light: 21.4 M^−1 S^−1
  kcat/Km of ATP hydrolysis of purified OmrDE with OcHeR R102Q (1:1), presence of light (532 nm): 18.1 M^−1 S^−1

Reference: article PMC11109279, “Heliorhodopsin-mediated light-modulation of ABC transporter” (Nature Communications, 2024)
